How the values were obtained:
HeLa Kyoto [1] = assay: thermal stability score vs G1/S (z-score of summed log2 fold changes over temperatures); higher = more thermally stable than in G1/S
HeLa Kyoto [2] = assay: solubility change mitosis vs G1/S (difference of NP-40 vs SDS log2 ratios) (log2 ratio difference); higher = more soluble in mitosis
HeLa Kyoto [3] = assay: solubility in G1/S (NP-40 vs SDS abundance) (log2 ratio); higher = more soluble; conditions: cell cycle stage: G1/S
[4] = cell cycle stage: early G1 (4.5 h after nocodazole release)
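Throughout, for solubility change mitosis vs G1/S (difference of NP-40 vs SDS log2 ratios): synchronized HeLa Kyoto cells (double thymidine block for G1/S, nocodazole release for mitosis), protein amounts in NP-40 versus SDS lysates quantified by mass spectrometry, three biological replicates.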
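Throughout, for solubility in G1/S (NP-40 vs SDS abundance): HeLa Kyoto cells arrested at G1/S by double thymidine block, proteins quantified by TMT10plex mass spectrometry in mild NP-40 versus SDS extracts, three biological replicates.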
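Throughout, for thermal stability score vs G1/S (z-score of summed log2 fold changes over temperatures): synchronized HeLa Kyoto cells, proteins quantified by TMT10plex mass spectrometry, three biological replicates, mitosis taken 0.5 h after nocodazole release, G1/S directly after double thymidine block.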

For MPV17L2, the thermal stability score (HeLa Kyoto [1]; [4]) was -0.139, the thermal stability score (HeLa Kyoto [1]; cell cycle stage: mitosis) was -0.811 and the “solubility change mitosis (log2)” value (HeLa Kyoto [2]) was -0.154. The “solubility in G1/S (log2)” value (HeLa Kyoto [3]) was -0.0909.
For “MSQYTEKEPAAMDQESGKAVWPKPAGGYQTITGRRYGRRHAYVSFKPCMTRHERSLGRAGDDYEVLELDDVPKENSSGSSPLDQVDSSLPSEPIFEKSETEIPTCGSALNQTTESSQSFVAVHHSEEGRDTLGSSTNLHNHSEGEYIPGACSASSVQNGIALVHTDSYDPDGKHGEDNDHLQLSAEVVEGSRYQESLGNTVFELENREAEAYTGLSPPVPSFNCEVRDEFEELDSVPLVKSSAGDTEFVHQNSQEIQRSSQDEMVSTKQQNNTSQERQTEHSPEDAACGPGHICSEQNTNDREKNHGSSPEQVVRPKVRKLISSSQVDQETGFNRHEAKQRSVQRWREALEVEESGSDDLLIKCEEYDGEHDCMFLDPPYSRVITQRETENNQMTSESGATAGRQEVDNTFWNGCGDYYQLYDKDEDSSECSDGEWSASLPHRFSGTEKDQSSSDESWETLPGKDENEPELQSDSSGPEEENQELSLQEGEQTSLEEGEIPWLQYNEVNESSSDEGNEPANEFAQPAFMLDGNNNLEDDSSVSEDLDVDWSLFDGFADGLGVAEAISYVDPQFLTYMALEERLAQAMETALAHLESLAVDVEVANPPASKESIDGLPETLVLEDHTAIGQEQCCPICCSEYIKDDIATELPCHHFFHKPCVSIWLQKSGTCPVCRRHFPPAVIEASAAPSSEPDPDAPPSNDSIAEAP [PJA2]”, the thermal stability score (HeLa Kyoto [1]; [4]) was -3.9, the thermal stability score (HeLa Kyoto [1]; cell cycle stage: mitosis) was -1.5 and the “solubility change mitosis (log2)” value (HeLa Kyoto [2]) was 0.121. The “solubility in G1/S (log2)” value (HeLa Kyoto [3]) was -0.111.
“MSSEMLPAFIETSNVDKKQGINEDQEESQKPRLGEGCEPISKRQMKKLIKQKQWEEQRELRKQKRKEKRKRKKLERQCQMEPNSDGHDRKRVRRDVVHSTLRLIIDCSFDHLMVLKDIKKLHKQIQRCYAENRRALHPVQFYLTSHGGQLKKNMDENDKGWVNWKDIHIKPEHYSELIKKEDLIYLTSDSPNILKELDESKAYVIGGLVDHNHHKGLTYKQASDYGINHAQLPLGNFVKMNSRKVLAVNHVFEIILEYLETRDWQEAFFTILPQRKGAVPTDKACESASHDNQSVRMEEGGSDSDSSEEEYSRNELDSPHEEKQDKENHTESTVNSLPH [TRMT10A]” was tested, and the thermal stability score (HeLa Kyoto [1]; [4]) was 0.883, the thermal stability score (HeLa Kyoto [1]; cell cycle stage: mitosis) was 0.552 and the “solubility change mitosis (log2)” value (HeLa Kyoto [2]) was -0.0488. The “solubility in G1/S (log2)” value (HeLa Kyoto [3]) was -0.0218.
With “MSSKQEIMSDQRFRRVAKDPRFWEMPEKDRKVKIDKRFRAMFHDKKFKLNYAVDKRGRPISHSTTEDLKRFYDLSDSDSNLSGEDSKALSQKKIKKKKTQTKKEIDSKNLVEKKKETKKANHKGSENKTDLDNSIGIKKMKTSCKFKIDSNISPKKDSKEFTQKNKKEKKNIVQHTTDSSLEEKQRTLDSGTSEIVKSPRIECSKTRREMQSVVQLIMTRDSDGYENSTDGEMCDKDALEEDSESVSEIGSDEESENEITSVGRASGDDDGSEDDEEEDEDEEEDEDEDSEDDDKSDSGPDLARGKGNIETSSEDEDDTADLFPEESGFEHAWRELDKDAPRADEITRRLAVCNMDWDRLKAKDLLALFNSFKPKGGVIFSVKIYPSEFGKERMKEEQVQGPVELLSIPEDAPEKDWTSREKLRDYQFKRLKYYYAVVDCDSPETASKIYEDCDGLEFESSCSFIDLRFIPDDITFDDEPKDVASEVNLTAYKPKYFTSAAMGTSTVEITWDETDHERITMLNRKFKKEELLDMDFQAYLASSSEDEEEIEEELQGDDGVNVEEDGKTKKSQKDDEEQIAKYRQLLQVIQEKEKKGKENDMEMEIKWVPGLKESAEEMVKNKLEGKDKLTPWEQFLEKKKEKKRLKRKQKALAEEASEEELPSDVDLNDPYFAEEVKQIGINKKSVKSAKDGTSPEEEIEIERQKAEMALLMMDEDEDSKKHFNYNKIVEHQNLSKKKKKQLMKKKELIEDDFEVNVNDARFQAMYTSHLFNLDPSDPNFKKTKAMEKILEEKARQRERKEQELTQAIKKKESEIEKESQRKSIDPALSMLIKSIKTKTEQFQARKKQKVK [ESF1]” the thermal stability score (HeLa Kyoto [1]; [4]) was 2.5, the thermal stability score (HeLa Kyoto [1]; cell cycle stage: mitosis) was 5.59 and the “solubility change mitosis (log2)” value (HeLa Kyoto [2]) was 0.656. The “solubility in G1/S (log2)” value (HeLa Kyoto [3]) was -1.21.
For “MSTEGGGRRCQAQVSRRISFSASHRLYSKFLSDEENLKLFGKCNNPNGHGHNYKVVVTVHGEIDPATGMVMNLADLKKYMEEAIMQPLDHKNLDMDVPYFADVVSTTENVAVYIWDNLQKVLPVGVLYKVKVYETDNNIVVYKGE [PTS]”, the thermal stability score (HeLa Kyoto [1]; [4]) was -0.38, the thermal stability score (HeLa Kyoto [1]; cell cycle stage: mitosis) was -1.87 and the “solubility change mitosis (log2)” value (HeLa Kyoto [2]) was -0.182. For the same substance, the “solubility in G1/S (log2)” value (HeLa Kyoto [3]) was 0.154.
For “MTKLAQWLWGLAILGSTWVALTTGALGLELPLSCQEVLWPLPAYLLVSAGCYALGTVGYRVATFHDCEDAARELQSQIQEARADLARRGLRF [DPM3]”, the thermal stability score (HeLa Kyoto [1]; [4]) was -3.28, the thermal stability score (HeLa Kyoto [1]; cell cycle stage: mitosis) was -4.14 and the “solubility change mitosis (log2)” value (HeLa Kyoto [2]) was -0.214. The “solubility in G1/S (log2)” value (HeLa Kyoto [3]) was -0.196.
With “MTNPWEEKVCKMAQTSLLQGKQFYCREWVFHKLQHCLQEKSNCCNSAVNAPSLVMNSGNNASGVSGKGAAWGVLLVGGPGSGKTALCTELLWPSSPASLQRGLHRQALAFHFCKAQDSDTLCVGGFIRGLVAQICRSGLLQGYEDKLRDPAVQSLLQPGECERNPAEAFKRCVLLPLLGMKPPQQSLYLLVDSVDEGCNITEGEQTSTSLSGTVAALLAGHHEFFPPWLLLLCSARKQSKAVTKMFTGFRKISLDDLRKAYIVKDVQQYILHRLDQEEALRQHLTKETAEMLNQLHIKSSGCFLYLERVLDGVVENFIMLREIRDIPGTLNGLYLWLCQRLFVRKQFAKVQPILNVILAACRPLTITELYHAVWTKNMSLTLEDFQRKLDILSKLLVDGLGNTKILFHYSFAEWLLDVKHCTQKYLCNAAEGHRMLAMSYTCQAKNLTPLEAQEFALHLINSNLQLETAELALWMIWNGTPVRDSLSTLIPKEQEVLQLLVKAGAHVNSEDDRTSCIVRQALEREDSIRTLLDNGASVNQCDSNGRTLLANAAYSGSLDVVNLLVSRGADLEIEDAHGHTPLTLAARQGHTKVVNCLIGCGANINHTDQDGWTALRSAAWGGHTEVVSALLYAGVKVDCADADSRTALRAAAWGGHEDIVLNLLQHGAEVNKADNEGRTALIAAAYMGHREIVEHLLDHGAEVNHEDVDGRTALSVAALCVPASKGHASVVSLLIDRGAEVDHCDKDGMTPLLVAAYEGHVDVVDLLLEGGADVDHTDNNGRTPLLAAASMGHASVVNTLLFWGAAVDSIDSEGRTVLSIASAQGNVEVVRTLLDRGLDENHRDDAGWTPLHMAAFEGHRLICEALIEQGARTNEIDNDGRIPFILASQEGHYDCVQILLENKSNIDQRGYDGRNALRVAALEGHRDIVELLFSHGADVNCKDADGRPTLYILALENQLTMAEYFLENGANVEASDAEGRTALHVSCWQGHMEMVQVLIAYHADVNAADNEKRSALQSAAWQGHVKVVQLLIEHGAVVDHTCNQGATALCIAAQEGHIDVVQVLLEHGADPNHADQFGRTAMRVAAKNGHSQIIKLLEKYGASSLNGCSPSPVHTMEQKPLQSLSSKVQSLTIKSNSSGSTGGGDMQPSLRGLPNGPTHAFSSPSESPDSTVDRQKSSLSNNSLKSSKNSSLRTTSSTATAQTVPIDSFHNLSFTEQIQQHSLPRSRSRQSIVSPSSTTQSLGQSHNSPSSEFEWSQVKPSLKSTKASKGGKSENSAKSGSAGKKAKQSNSSQPKVLEYEMTQFDRRGPIAKSGTAAPPKQMPAESQCKIMIPSAQQEIGRSQQQFLIHQQSGEQKKRNGIMTNPNYHLQSNQVFLGRVSVPRTMQDRGHQEVLEGYPSSETELSLKQALKLQIEGSDPSFNYKKETPL [ANKRD50]” the thermal stability score (HeLa Kyoto [1]; [4]) was -0.667, the thermal stability score (HeLa Kyoto [1]; cell cycle stage: mitosis) was -0.543 and the “solubility change mitosis (log2)” value (HeLa Kyoto [2]) was -0.256. The “solubility in G1/S (log2)” value (HeLa Kyoto [3]) was 0.02.
With “MTTAQRDSLLWKLAGLLRESGDVVLSGCSTLSLLTPTLQQLNHVFELHLGPWGPGQTGFVALPSHPADSPVILQLQFLFDVLQKTLSLKLVHVAGPGPTGPIKIFPFKSLRHLELRGVPLHCLHGLRGIYSQLETLICSRSLQALEELLSACGGDFCSALPWLALLSANFSYNALTALDSSLRLLSALRFLNLSHNQVQDCQGFLMDLCELHHLDISYNRLHLVPRMGPSGAALGVLILRGNELRSLHGLEQLRNLRHLDLAYNLLEGHRELSPLWLLAELRKLYLEGNPLWFHPEHRAATAQYLSPRARDAATGFLLDGKVLSLTDFQTHTSLGLSPMGPPLPWPVGSTPETSGGPDLSDSLSSGGVVTQPLLHKVKSRVRVRRASISEPSDTDPEPRTLNPSPAGWFVQQHPELELMSSFRERFGRNWLQYRSHLEPSGNPLPATPTTSAPSAPPASSQGPDTAPRPSPPQEEARGPQESPQKMSEEVRAEPQEEEEEKEGKEEKEEGEMVEQGEEEAGEEEEEEQDQKEVEAELCRPLLVCPLEGPEGVRGRECFLRVTSAHLFEVELQAARTLERLELQSLEAAEIEPEAQAQRSPRPTGSDLLPGAPILSLRFSYICPDRQLRRYLVLEPDAHAAVQELLAVLTPVTNVAREQLGEARDLLLGRFQCLRCGHEFKPEEPRMGLDSEEGWRPLFQKTESPAVCPNCGSDHVVLLAVSRGTPNRERKQGEQSLAPSPSASPVCHPPGHGDHLDRAKNSPPQAPSTRDHGSWSLSPPPERCGLRSVDHRLRLFLDVEVFSDAQEEFQCCLKVPVALAGHTGEFMCLVVVSDRRLYLLKVTGEMREPPASWLQLTLAVPLQDLSGIELGLAGQSLRLEWAAGAGRCVLLPRDARHCRAFLEELLDVLQSLPPAWRNCVSATEEEVTPQHRLWPLLEKDSSLEARQFFYLRAFLVEGPSTCLVSLLLTPSTLFLLDEDAAGSPAEPSPPAASGEASEKVPPSGPGPAVRVREQQPLSSLSSVLLYRSAPEDLRLLFYDEVSRLESFWALRVVCQEQLTALLAWIREPWEELFSIGLRTVIQEALALDR [STK11IP]” the thermal stability score (HeLa Kyoto [1]; [4]) was -0.272, the thermal stability score (HeLa Kyoto [1]; cell cycle stage: mitosis) was -1.04 and the “solubility change mitosis (log2)” value (HeLa Kyoto [2]) was -0.0941. The “solubility in G1/S (log2)” value (HeLa Kyoto [3]) was -0.0528.
“MTTLDHVIATHQSEWVSFNEEPPFPAHSQGGTEEHLPGLSSSPDQSESSSGENHVVDGGSQDHSHSEQDDSSEKMGLISEAASPPGSPEQPPPDLASAISNWVQFEDDTPWASTSPPHQETAETALPLTMPCWTCPSFDSLGRCPLTSESSWTTHSEDTSSPSFGCSYTDLQLINAEEQTSGQASGADSTDNSSSLQEDEEVEMEAISWQASSPAMNGHPAPPVTSARFPSWVTFDDNEVSCPLPPVTSPLKPNTPPSASVIPDVPYNSMGSFKKRDRPKSTLMNFSKVQKLDISSLNRTPSVTEASPWRATNPFLNETLQDVQPSPINPFSAFFEEQERRSQNSSISSTTGKSQRDSLIVIYQDAISFDDSSKTQSHSDAVEKLKQLQIDDPDHFGSATLPDDDPVAWIELDAHPPGSARSQPRDGWPMMLRIPEKKNIMSSRHWGPIFVKLTDTGYLQLYYEQGLEKPFREFKLEICHEISEPRLQNYDENGRIHSLRIDRVTYKEKKKYQPKPAVAHTAEREQVIKLGTTNYDDFLSFIHAVQDRLMDLPVLSMDLSTVGLNYLEEEITVDVRDEFSGIVSKGDNQILQHHVLTRIHILSFLSGLAECRLGLNDILVKGNEIVLRQDIMPTTTTKWIKLHECRFHGCVDEDVFHNSRVILFNPLDACRFELMRFRTVFAEKTLPFTLRTATSVNGAEVEVQSWLRMSTGFSANRDPLTQVPCENVMIRYPVPSEWVKNFRRESVLGEKSLKAKVNRGASFGSTSVSGSEPVMRVTLGTAKYEHAFNSIVWRINRLPDKNSASGHPHCFFCHLELGSDREVPSRFANHVNVEFSMPTTSASKASVRSISVEDKTDVRKWVNYSAHYSYQVALGSIWLMLPTPFVHPTTLPLLFLLAMLTMFAW [STON2]” was tested, and the thermal stability score (HeLa Kyoto [1]; [4]) was 0.129, the thermal stability score (HeLa Kyoto [1]; cell cycle stage: mitosis) was -0.103 and the “solubility change mitosis (log2)” value (HeLa Kyoto [2]) was 0.444. For the same substance, the “solubility in G1/S (log2)” value (HeLa Kyoto [3]) was -0.622.

— the supplement of paper PMC5998384
